We go through one molecule from patent US20030124704A1 (YALE UNIVERSITY, published 2003).

In this assay the target is Alkaline phosphatase-hNogo-A(1055-1120) (human, UniProt P05187 23-511). Description: AP-fusion ligand binding to COS-7 cells transfected with myc-mNgR3; expression checked by anti-myc staining and immunoblot. From the text:
The mouse NgR3 cDNA was amplified by PCR from mouse adult brain cDNA, from the signal sequence to the stop codon, and ligated into the pSecTag2 vector such that the vector encodes a signal sequence followed by a myc tag followed by the mature mNgR3 sequence. This plasmid was transfected into COS07cells, and expression of a myc-tagged protein of the predicted size was verified by immunoblot analysis.
(In general: A western blot detects proteins with antibodies after separation by electrophoresis.)

Chain of Alkaline phosphatase-hNogo-A(1055-1120) (P05187 other isoform, or with tags, fused parts or gaps): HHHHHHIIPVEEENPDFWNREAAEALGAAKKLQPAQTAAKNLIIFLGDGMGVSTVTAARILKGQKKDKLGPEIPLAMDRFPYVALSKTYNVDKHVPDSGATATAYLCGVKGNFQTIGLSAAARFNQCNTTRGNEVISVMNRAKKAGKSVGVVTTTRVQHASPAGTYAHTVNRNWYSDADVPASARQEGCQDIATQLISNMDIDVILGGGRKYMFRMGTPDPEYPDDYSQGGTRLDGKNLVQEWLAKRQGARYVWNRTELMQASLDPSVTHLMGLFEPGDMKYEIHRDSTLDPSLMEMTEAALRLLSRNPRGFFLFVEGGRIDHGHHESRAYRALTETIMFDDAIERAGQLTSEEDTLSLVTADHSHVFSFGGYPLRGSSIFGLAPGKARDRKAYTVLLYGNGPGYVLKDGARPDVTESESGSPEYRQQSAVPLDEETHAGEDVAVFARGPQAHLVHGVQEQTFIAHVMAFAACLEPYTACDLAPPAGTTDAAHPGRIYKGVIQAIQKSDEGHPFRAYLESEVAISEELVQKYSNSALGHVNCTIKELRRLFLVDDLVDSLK

B1: myc epitope-tagged mouse NgR3 (mNgR3) expressed on COS-7 cells (receptor, not shown: small tags and cut ends)
chain: CPRDCVCYPAPMTVSCQAHNFAAIPEGIPEDSERIFLQNNRITFLQQGHFSPAMVTLWIYSNNITFIAPNTFEGFVHLEELDLGDNRQLRTLAPETFQGLVKLHALYLYKCGLSALPAGIFGGLHSLQYLYLQDNHIEYLQDDIFVDLVNLSHLFLHGNKLWSLGQGIFRGLVNLDRLLLHENQLQWVHHKAFHDLHRLTTLFLFNNSLTELQGDCLAPLVALEFLRLNGNAWDCGCRARSLWEWLRRFRGSSSAVPCATPELRQGQDLKLLRVEDFRNCTGPVSPHQIKSHTLTTSDRAARKEHHPSHGASRDKGHPHGHPPGSRSGYKKAGKNCTSHRNRNQISKVSSGKELTELQDYAPDYQHKFSFDIMPTARPKRKGKCARRTPIRAPSGVQQAS
notes: The cDNA was amplified from mouse adult brain; Any processing of the C-terminal GPI signal is not described; also called myc-NgR3
Regarding B1, the binding result is “no binding”.
